Results on six variants are retold here after IntAct's records for PubMed 23523425.

To fix the notation:
B1: Polycomb complex protein BMI-1 (Homo sapiens), P35226 (parent)
chain: MHRTTRIKITELNPHLMCVLCGGYFIDATTIIECLHSFCKTCIVRYLETSKYCPICDVQVHKTRPLLNIRSDKTLQDIVYKLVPGLFKNEMKRRRDFYAAHPSADAANGSNEDRGEVADEDKRIITDDEIISLSIEFFDQNRLDRKVNKDKEKSKEEVNDKRYLRCPAAMTVMHLRKFLRSKMDIPNTFQIDVMYEEEPLKDYYTLMDIAYIYTWRRNGPLPLKYRVRPTCKRMKISHQRDGLTNAGELESDSGSDKANSPAGGIPSTSSCLPSPSTPVQSPHPQFPHISSTMNGTSNSPSGNHQSSFANRPRKSSVNGSSATSSG
partner: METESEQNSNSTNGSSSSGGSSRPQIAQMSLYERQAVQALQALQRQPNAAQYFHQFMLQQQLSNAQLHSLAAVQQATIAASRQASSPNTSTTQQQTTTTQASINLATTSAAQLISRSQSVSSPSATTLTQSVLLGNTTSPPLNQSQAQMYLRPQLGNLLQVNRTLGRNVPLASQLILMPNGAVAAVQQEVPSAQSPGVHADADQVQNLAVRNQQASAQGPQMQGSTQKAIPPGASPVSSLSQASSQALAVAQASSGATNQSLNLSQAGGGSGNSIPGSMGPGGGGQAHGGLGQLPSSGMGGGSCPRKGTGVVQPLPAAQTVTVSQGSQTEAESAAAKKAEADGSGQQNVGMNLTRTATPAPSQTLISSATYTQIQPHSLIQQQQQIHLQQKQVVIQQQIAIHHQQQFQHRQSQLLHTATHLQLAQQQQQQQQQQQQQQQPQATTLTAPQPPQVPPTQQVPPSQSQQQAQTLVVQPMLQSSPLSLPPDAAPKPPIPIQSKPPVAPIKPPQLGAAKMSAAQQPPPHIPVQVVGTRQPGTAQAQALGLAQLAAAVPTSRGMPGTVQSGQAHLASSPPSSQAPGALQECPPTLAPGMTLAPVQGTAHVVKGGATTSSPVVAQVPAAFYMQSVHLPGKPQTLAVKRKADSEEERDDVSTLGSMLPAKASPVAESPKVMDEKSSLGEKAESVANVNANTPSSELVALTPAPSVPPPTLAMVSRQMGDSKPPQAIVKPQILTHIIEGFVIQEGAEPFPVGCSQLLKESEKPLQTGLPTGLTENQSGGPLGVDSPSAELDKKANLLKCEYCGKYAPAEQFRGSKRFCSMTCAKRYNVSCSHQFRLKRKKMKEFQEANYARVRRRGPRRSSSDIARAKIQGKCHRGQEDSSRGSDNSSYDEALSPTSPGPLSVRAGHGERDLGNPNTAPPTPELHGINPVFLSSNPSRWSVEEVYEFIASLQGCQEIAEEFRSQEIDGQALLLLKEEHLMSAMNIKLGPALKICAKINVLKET
B2: Polycomb group RING finger protein 2 (Homo sapiens), P35227 (parent)
chain: MHRTTRIKITELNPHLMCALCGGYFIDATTIVECLHSFCKTCIVRYLETNKYCPMCDVQVHKTRPLLSIRSDKTLQDIVYKLVPGLFKDEMKRRRDFYAAYPLTEVPNGSNEDRGEVLEQEKGALSDDEIVSLSIEFYEGARDRDEKKGPLENGDGDKEKTGVRFLRCPAAMTVMHLAKFLRNKMDVPSKYKVEVLYEDEPLKEYYTLMDIAYIYPWRRNGPLPLKYRVQPACKRLTLATVPTPSEGTNTSGASECESVSDKAPSPATLPATSSSLPSPATPSHGSPSSHGPPATHPTSPTPPSTASGATTAANGGSLNCLQTPSSTSRGRKMTVNGAPVPPLT
partner: B1 partner

The variants in the first assay derive from B1. The note with it: with phc1_human PHC1, P78364.
With R165A, the “effect of a mutation on the interaction” value was “decreasing interaction strength”.
On the same count and under the same terms, the result for Y163A reads “decreasing interaction strength”; that for F178D, “decreasing interaction strength”.

The next assay covers variants of B2. The settings on record: with phc1_human PHC1, P78364.
Take F165A: the “effect of a mutation on the interaction” value is listed as “decreasing interaction strength”.
The same measure, in the same setting: the result for R164A reads “decreasing interaction strength”.
The same measure, in the same setting: the value for F180D was “decreasing interaction strength”.
